± gives the standard deviation of the averaged measurements.

This series deals with ATP. Briefly: switch fluorescence ratio, 500 uM ATP over buffer (Cy3 cluster intensity, sum of 5 cycles each) (fold (ratio)); higher = stronger signal-on switching upon ATP binding; sequences stand for … in TCGTCGGCAGCGTCAGATGTGTATAAGAGACAGTTTTTTTTTTTTTTTTTTTTTTTTT…TC. The following applies: aptamer strand: ATP DNA aptamer (quencher-CACCTGGGGGAGTATTGCGGAGGAAGG + anchor), 100 nM annealed; ATP concentration: 500 uM. In a few lines:
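Clusters with intensities outside 100-1000 RFU were excluded. The remaining Cy3-labelled switching-strand clusters on a modified Illumina MiSeq flow-cell had been annealed to 100 nM quencher-labelled ATP aptamer and imaged in selection buffer, then after 15 min with 500 uM ATP at 22 °C, for five cycles separated by NaOH stripping and re-annealing. The fluorescence ratio, averaged per switch-domain sequence, is each cluster's summed target-cycle Cy3 intensity over its summed buffer-cycle Cy3 intensity.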
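Further: ATP exposure 15 min at 22 °C before imaging.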

Consider AATAACCAGT, for which the switch fluorescence ratio is 1.02 ± 0.016. Turning to AATAAGAGGG, the switch fluorescence ratio worked out at 1.01 ± 0.026. To AATAAGGAGA belongs 1.01 ± 0.019. As for AATAAGGGGA, the switch fluorescence ratio was 1.02 ± 0.077. To AATAAGGTAT belongs 0.965 ± 0.014. The same measure for AATAAGTTTT: 0.969 ± 0.037.

In the case of AATAATGTTG, the switch fluorescence ratio was determined as 0.998 ± 0.015. In the case of AATAATTGTG, the switch fluorescence ratio turned out to be 1.02 ± 0.028. The same measure for AATACAGCAT: 1.03 ± 0.014; for AATACCATCG: 1.05 ± 0.033; for AATACGACGG: 1.14 ± 0.014. The same measure for AATACGAGAG: 1.03 ± 0.019. The same measure for AATACGAGTC: 1.09 ± 0.022. With AATAGAAAAT, the switch fluorescence ratio was 0.97 ± 0.061.

As to AATAGAATTA, the switch fluorescence ratio worked out at 1 ± 0.018.

Turning to AATAGAGTGG, the switch fluorescence ratio came to 0.99 ± 0.024. To AATAGCATGG belongs 1.03 ± 0.024.

AATAGCTAGT: the switch fluorescence ratio was 0.99272 ± 0.00015.

In the case of AATAGGACGG, the switch fluorescence ratio was found to be 1.03 ± 0.022. To AATAGGGCAG belongs 1.009 ± 0.0078; to AATAGGGGTA, 0.987 ± 0.029; to AATAGGGTG, 1.08 ± 0.07. To AATAGGTAG belongs 0.976 ± 0.014.

Take AATAGGTTAG: the switch fluorescence ratio turned out to be 1.001 ± 0.0075. The same measure for AATAGTTACT: 1.0234 ± 0.00037; for AATAGTTAGG: 1.02 ± 0.012; for AATAGTTTAG: 0.9918 ± 0.0035. For the sequence AATATAGCGT, the switch fluorescence ratio was determined as 0.969 ± 0.021. As to AATATAGTTG, the switch fluorescence ratio worked out at 1.02 ± 0.018. The same measure for AATATGAGGG: 1.01 ± 0.042; for AATATGTGTG: 0.97933 ± 0.00034; for AATATTAGGC: 1.03 ± 0.03. The same measure for AATATTCTGT: 0.9923 ± 0.0029. To AATATTTAGT belongs 1 ± 0.024.

Consider AATATTTTCC, for which the switch fluorescence ratio is 1.04 ± 0.052.

Turning to AATATTTTTG, the switch fluorescence ratio was determined as 1 ± 0.019.

Turning to AATCAAGTAG, the switch fluorescence ratio was determined as 0.9821 ± 0.0086. The same measure for AATCACGGTG: 1.05 ± 0.052; for AATCAGCCTC: 1.01 ± 0.016. Take AATCAGCGGT: the switch fluorescence ratio amounted to 1.02 ± 0.028.

As for AATCATTCCG, the switch fluorescence ratio amounted to 1.07 ± 0.041. To AATCATTGTA belongs 1.01 ± 0.039. The same measure for AATCCCGCCA: 1.19 ± 0.034; for AATCCGGGGC: 2.35 ± 1.6; for AATCCTAAGG: 1.02 ± 0.048. The same measure for AATCCTATCA: 1.02 ± 0.014; for AATCGCAACG: 1.02 ± 0.022. For the sequence AATCGCTGGG, the switch fluorescence ratio stood at 0.988 ± 0.022.

For the sequence AATCGGGAA, the switch fluorescence ratio was 0.9868 ± 0.0041.

Take AATCGGGTAT: the switch fluorescence ratio was determined as 0.984 ± 0.027.

Take AATCGGTCAC: the switch fluorescence ratio amounted to 0.998 ± 0.025. As for AATCGGTCTG, the switch fluorescence ratio came out at 1.03 ± 0.02. Consider AATCGGTGCG, for which the switch fluorescence ratio was 0.986 ± 0.049.

In the case of AATCGTATCC, the switch fluorescence ratio is 1.01 ± 0.029. To AATCGTCAGG belongs 1.01 ± 0.012; to AATCTAATTG, 1.002 ± 0.0038; to AATCTGCTCG, 0.9864 ± 0.002. The same measure for AATCTGGGGC: 0.968 ± 0.011; for AATCTGGTGT: 1.02 ± 0.054. To AATCTTGAGG belongs 1.01 ± 0.028; to AATCTTTATT, 1.008 ± 0.0018. With AATGAAGGCA, the switch fluorescence ratio was determined as 1.005 ± 0.0049. The same measure for AATGAATGAG: 0.971 ± 0.022; for AATGAATTGT: 1.02 ± 0.022; for AATGAGTATA: 0.9915 ± 0.007.

Take AATGCCAGGG: the switch fluorescence ratio came to 1.02 ± 0.026. The same measure for AATGCCTGGT: 0.984 ± 0.022. The same measure for AATGCGGGGA: 1.03 ± 0.017; for AATGCGGTAT: 1.01 ± 0.023. To AATGCGTGTG belongs 1.12 ± 0.15. On to AATGCTGTTG, for which the switch fluorescence ratio was 0.991 ± 0.02. The same measure for AATGCTTGTC: 0.952 ± 0.048; for AATGCTTTGG: 1.007 ± 0.0095; for AATGGAAGGG: 1.01 ± 0.013.

Turning to AATGGAGATT, the switch fluorescence ratio was 0.985 ± 0.031. To AATGGATGTT belongs 1.05 ± 0.12. To AATGGCAGGA belongs 0.998 ± 0.016. To AATGGCAGTC belongs 1.03 ± 0.05. As to AATGGCCTA, the switch fluorescence ratio was 1.03 ± 0.046.

The values are drawn from the supplement of paper PMC10126150.
